# B1: TaLcc1: Recombinant Thielavia arenaria ALKO4197 laccase 1 (SEQ ID NO: 12) produced in Trichoderma reesei strains RF5597/RF5598 (protein)
# chain: MKSWAAAVALMVGILSPHAAAAPPANPVQRDMLQVLEARQSGPTCNTPSNRACWTNGFDINTDYEVSTPNTGRTVAYQLTLTEKENWIGPDGVLKNVVMLVNDKIIGPTIRANWGDNIEVTVINNLKTNGTSMHWHGLRQLGNVFNDGANGVTECPIPPKGGRKTYKFRATQYGTSWYHSHFSAQYGNGVVGTIQIDGPASLPYDIDLGVFPLMDYYYRSADELVHFTQSNGAPPSDNVLFNGTARHPETGAGQWYNVTLTPGKRHRLRIINTSTDNHFQVSLVGHNMTVIATDMVPVNAFTVSSLFLAVGQRYDVTIDANSPVGNYWFNVTFGDGLCGSSNNKFPAAIFRYQGAPATLPTDQGLPVPNHMCLDNLNLTPVVTRSAPVNNFVKRPSNTLGVTLDIGGTPLFVWKVNGSAINVDWGKPILDYVMSGNTSYPVSDNIVQVDAVDQWTYWLIENDPTNPIVSLPHPMHLHGHDFLVLGRSPDELPSAGVRHIFDPAKDLPRLKGNNPVRRDVTMLPAGGWLLLAFKTDNPGAWLFHCHIAWHVSGGLSVDFLERPNDLRTQLNSNAKRADRDDFNRVCREWNAYWPTNPFPKIDSGLRHRFVEESEWMVR
# modifications: Thielavia arenaria ALKO4197; (1)..(617) Deduced amino acid sequence of Thielavia arenaria ALKO4197 laccase 1 (Ta Lcc1)
# Key:
# [1] = Denim bleaching at different temperatures (Launder Ometer); conditions: 200 nkat/g, 30 min, pH 6
# Description: The test system and denim were as in Example 7, except that the conditions during the laccase and mediator treatment in Launder were 30 min, pH 6 and temperature 30-80° C. Also, the enzyme was inactivated by an alkaline treatment instead of raising the temperature in Launder as follows. After removing swatches from the containers they were soaked in warm water containing NaOH (pH 11.5) for 10 min and rinsed carefully with warm water. The swatches were dried half-dry in a tumbler and after that air dried. The bleaching effect was evaluated by measuring the colour as reflectance values as in Example 7.
# [2] = Specific activity on ABTS; assay type: biochemical; conditions: 25 mM succinate buffer pH 4.5, 25° C.
# Description: The activity assay was carried out in accordance with the method developed by Niku-Paavola et al. (1988). The sample was diluted with 0.025 M succinate buffer, pH 4.5. […] The activity is expressed as nano katals.
# Specific activities of the purified Thielavia laccase were determined towards different laccase substrates.
# [3] = Denim bleaching: laccase-mediator (100 nkat/g, 5 mg/g, 30 min, 60° C.) compared to sodium hypochlorite (15 min, 40° C.)
# Description: Different types of demin were treated with a TaLcc1 laccase product from Trichoderma strain RF5597 and DeniLite II Base from Novozymes and the results obtained were compared to hypochlorite bleaching. All together 27 pieces of different kinds of denim (whole jeans), which had been previously washed with cellulase after desizing to different abrasion levels or had been only desized with ECOSTONE®A200 (60° C., 10 min), were collected for the test (Table 15). The jeans were made of Indigo dyed denim, except the English jeans contained Indigo dyed denim with sulphur bottom. Jeans were cut in such a way that pieces from the same pair of jeans could be used for all tests.
# The jeans were made of Indigo dyed denim (right hand twill), except the English jeans contained Indigo dyed denim with sulphur bottom. The weights of the original (i.e. not desized) denim fabrics were typically higher than 475 g/m^2 (14 oz/yd^2). The weights of three 10 cm×10 cm pieces were measured after 24 hours incubation at room temperature (ca. 22° C. and at relative moisture ca. 64%).
# The laccase treatments were performed with Electrolux's Wascator FOM 71 CLS washer extractor under optimal conditions for each enzyme, described in Table 16. Methyl syringate (Example 7) was used as a mediator. Laccase was inactivated after draining by raising the pH above 11 by NaOH (10 min, 60° C.) and rinsing for three times. The fabrics were dried in a tumbler.
# The sodium hypochlorite bleaching was performed with Electrolux's Wascator FOM 71 CLS washer extractor using denim obtained from the same jeans as in laccase treatments under conditions described in Table 17. Sodium hydroxide was added before adding 25 ml/l of 10% sodium hypochlorite solution (Klorite Forte, Farmos Oy) to keep the pH above 10.5 during the treatment. After draining the bleach liquor, there was one 2 minutes rinsing step with the liquor ratio of 1:20 before dechlorinating with sodium thiosulphate. After dechlorinating the denim samples were rinsed 3 times for 2 minutes with the liquor ratio of 1:20. The fabrics were dried in a tumbler.
# The bleaching effect was evaluated by measuring the colour as reflectance values as in Example 7. […] Different looks were obtained depending on the type of the denim and cellulase treatment used. “Sulphur-bottom type” denim was the most difficult to bleach.
# [4] = all cellulase treated denim samples
# [5] = sample B1: Basic Jeans, Ecostone P1250
# [6] = sample E1: English jeans (sulphur bottom), desized only
# [7] = sample E2: English jeans, Ecostone NP2000
# [8] = sample E3: English jeans, Rocksoft NCE-EA
# [9] = sample E4: English jeans, Rocksoft NCE-2X
# [10] = sample E5: English jeans, Ecostone L900
# [11] = sample E6: English jeans, Ecostone L900
# [12] = sample E7: English jeans, Ecostone L900
# [13] = sample L1: Lee Cooper jeans, desized only
# [14] = sample L2: Lee Cooper jeans, Ecostone L
# [15] = sample L3: Lee Cooper jeans, Biotouch C29
# [16] = sample L4: Lee Cooper jeans, Ecostone L
# [17] = sample L5: Lee Cooper jeans, Indiage Max L
# [18] = sample L6: Lee Cooper jeans, Indiage Super L
# [19] = sample L7: Lee Cooper jeans, Ecostone CXP500 Exper.
# [20] = sample L8: Lee Cooper jeans, Ecostone CXP experimental
# [21] = sample L9: Lee Cooper jeans, Ecostone N400
# [22] = sample T1: Tincan jeans, desized only
# [23] = sample T2: Tincan jeans, Ecostone N400
# [24] = sample T3: Tincan jeans, Ecostone L300
# [25] = sample T4: Tincan jeans, Denimax 991S
# [26] = sample W1: Warric jeans, desized only
# [27] = sample W2: Warric jeans, Ecostone P4500
# [28] = sample W3: Warric jeans, Indiage Max G
# [29] = sample W4: Warric jeans, Ecostone NP2000
# [30] = sample W5: Warric jeans, Ecostone L900
# [31] = sample W6: Warric jeans, Denabraide MBL 65 E
molecule,measurement,setting,value
B1,Increase of L*,"[1]; mediator 0 mg/g, 80° C.",0.64
same,L* after laccase treatment,"[1]; mediator 0 mg/g, 80° C.",30.27
same,b* after laccase treatment,"[1]; mediator 0 mg/g, 80° C.",−18.62
same,Increase of L*,"[1]; mediator 10 mg/g, 30° C.",4.10
same,L* after laccase treatment,"[1]; mediator 10 mg/g, 30° C.",33.68
same,b* after laccase treatment,"[1]; mediator 10 mg/g, 30° C.",−19.17
same,Increase of L*,"[1]; mediator 10 mg/g, 40° C.",8.68
same,L* after laccase treatment,"[1]; mediator 10 mg/g, 40° C.",37.49
same,b* after laccase treatment,"[1]; mediator 10 mg/g, 40° C.",−18.64
same,Increase of L*,"[1]; mediator 10 mg/g, 50° C.",14.59
same,L* after laccase treatment,"[1]; mediator 10 mg/g, 50° C.",42.99
same,b* after laccase treatment,"[1]; mediator 10 mg/g, 50° C.",−17.06
same,Increase of L*,"[1]; mediator 10 mg/g, 60° C.",18.42
same,L* after laccase treatment,"[1]; mediator 10 mg/g, 60° C.",47.56
same,b* after laccase treatment,"[1]; mediator 10 mg/g, 60° C.",−14.55
same,Increase of L*,"[1]; mediator 10 mg/g, 70° C.",17.85
same,L* after laccase treatment,"[1]; mediator 10 mg/g, 70° C.",46.94
same,b* after laccase treatment,"[1]; mediator 10 mg/g, 70° C.",−13.82
same,Increase of L*,"[1]; mediator 10 mg/g, 80° C.",9.85
same,L* after laccase treatment,"[1]; mediator 10 mg/g, 80° C.",39.24
same,b* after laccase treatment,"[1]; mediator 10 mg/g, 80° C.",−15.74
same,Specific activity on ABTS,[2],910 nkat/mg
same,bleaching better than DeniLite II Base,[3]; [4],55-200%
same,bleaching better than sodium hypochlorite,[3]; [4],60-115%
same,increase of L* better than DeniLite II Base,[3]; fabrics only desized,over 100%
same,increase of L* compared with sodium hypochlorite,[3]; fabrics only desized,equal or better
same,Increase of L*,[3]; [5],17.71
same,L* after treatment,[3]; [5],47.19
same,b* after treatment,[3]; [5],−12.75
same,Increase of L*,[3]; [6],5.24
same,L* after treatment,[3]; [6],22.71
same,b* after treatment,[3]; [6],−13.97
same,Increase of L*,[3]; [7],10.51
same,L* after treatment,[3]; [7],35.99
same,b* after treatment,[3]; [7],−14.08
same,Increase of L*,[3]; [8],11.26
same,L* after treatment,[3]; [8],36.52
same,b* after treatment,[3]; [8],−14.46
same,Increase of L*,[3]; [9],11.75
same,L* after treatment,[3]; [9],38.79
same,b* after treatment,[3]; [9],−13.94
same,Increase of L*,[3]; [10],12.34
same,L* after treatment,[3]; [10],37.53
same,b* after treatment,[3]; [10],−14.03
same,Increase of L*,[3]; [11],11.63
same,L* after treatment,[3]; [11],34.17
same,b* after treatment,[3]; [11],−14.79
same,Increase of L*,[3]; [12],13.16
same,L* after treatment,[3]; [12],36.00
same,b* after treatment,[3]; [12],−14.95
same,Increase of L*,[3]; [13],12.92
same,L* after treatment,[3]; [13],33.13
same,b* after treatment,[3]; [13],−19.41
same,Increase of L*,[3]; [14],19.08
same,L* after treatment,[3]; [14],50.89
same,b* after treatment,[3]; [14],−13.17
same,Increase of L*,[3]; [15],19.21
same,L* after treatment,[3]; [15],47.66
same,b* after treatment,[3]; [15],−14.82
same,Increase of L*,[3]; [16],18.97
same,L* after treatment,[3]; [16],48.39
same,b* after treatment,[3]; [16],−13.83
same,Increase of L*,[3]; [17],19.24
same,L* after treatment,[3]; [17],47.73
same,b* after treatment,[3]; [17],−14.28
same,Increase of L*,[3]; [18],17.17
same,L* after treatment,[3]; [18],46.71
same,b* after treatment,[3]; [18],−14.68
same,Increase of L*,[3]; [19],15.75
same,L* after treatment,[3]; [19],42.95
same,b* after treatment,[3]; [19],−16.23
same,Increase of L*,[3]; [20],17.27
same,L* after treatment,[3]; [20],46.73
same,b* after treatment,[3]; [20],−14.86
same,Increase of L*,[3]; [21],16.22
same,L* after treatment,[3]; [21],45.02
same,b* after treatment,[3]; [21],−14.91
same,Increase of L*,[3]; [22],9.80
same,L* after treatment,[3]; [22],34.82
same,b* after treatment,[3]; [22],−16.36
same,Increase of L*,[3]; [23],14.50
same,L* after treatment,[3]; [23],42.70
same,b* after treatment,[3]; [23],−14.60
same,Increase of L*,[3]; [24],18.01
same,L* after treatment,[3]; [24],47.09
same,b* after treatment,[3]; [24],−14.04
same,Increase of L*,[3]; [25],16.37
same,L* after treatment,[3]; [25],43.53
same,b* after treatment,[3]; [25],−15.18
same,Increase of L*,[3]; [26],10.51
same,L* after treatment,[3]; [26],28.54
same,b* after treatment,[3]; [26],−17.55
same,Increase of L*,[3]; [27],16.04
same,L* after treatment,[3]; [27],42.16
same,b* after treatment,[3]; [27],−14.48
same,Increase of L*,[3]; [28],15.53
same,L* after treatment,[3]; [28],44.08
same,b* after treatment,[3]; [28],−13.66
same,Increase of L*,[3]; [29],13.32
same,L* after treatment,[3]; [29],39.54
same,b* after treatment,[3]; [29],−14.72
same,Increase of L*,[3]; [30],16.52
same,L* after treatment,[3]; [30],40.49
same,b* after treatment,[3]; [30],−15.38
same,Increase of L*,[3]; [31],15.57
same,L* after treatment,[3]; [31],39.58
same,b* after treatment,[3]; [31],−15.62
